± gives the uncertainty stated by the source.

Data on 84 substances can be found in the Human Domainome abundance scans (Beltran et al. 2025).

This series is described as follows: abundance fitness (aPCA) (normalised: wild type 0, dead -1); higher = more abundant; growth selection in yeast, the domain comes from the species named. As to conditions: Homo sapiens.
On to “E3 ubiquitin-protein ligase NEDD4-like Q220D, Q96PU5”, for which the abundance fitness is -0.258 ± 0.088.
“E3 ubiquitin-protein ligase NEDD4-like Q220E, Q96PU5” gave an abundance fitness of -0.555 ± 0.084.
To “E3 ubiquitin-protein ligase NEDD4-like Q220F, Q96PU5” belongs -0.618 ± 0.12; to “E3 ubiquitin-protein ligase NEDD4-like Q220G, Q96PU5”, -0.548 ± 0.071; to “E3 ubiquitin-protein ligase NEDD4-like Q220H, Q96PU5”, -0.775 ± 0.17.
For “E3 ubiquitin-protein ligase NEDD4-like Q220I, Q96PU5” the value was -0.371 ± 0.12; for “E3 ubiquitin-protein ligase NEDD4-like Q220K, Q96PU5”, -0.757 ± 0.12.
To “E3 ubiquitin-protein ligase NEDD4-like Q220M, Q96PU5” belongs -0.362 ± 0.093; to “E3 ubiquitin-protein ligase NEDD4-like Q220N, Q96PU5”, -0.354 ± 0.071; to “E3 ubiquitin-protein ligase NEDD4-like Q220P, Q96PU5”, -0.9 ± 0.078.
Consider “E3 ubiquitin-protein ligase NEDD4-like Q220R, Q96PU5”, for which the abundance fitness was -0.557 ± 0.072.
Turning to “E3 ubiquitin-protein ligase NEDD4-like Q220S, Q96PU5”, the abundance fitness was 0.184 ± 0.065.
For “E3 ubiquitin-protein ligase NEDD4-like Q220T, Q96PU5” the value was 0.163 ± 0.077; for “E3 ubiquitin-protein ligase NEDD4-like Q220V, Q96PU5”, -0.242 ± 0.06.
“E3 ubiquitin-protein ligase NEDD4-like Q220Y, Q96PU5” showed an abundance fitness of -0.692 ± 0.096.
With “E3 ubiquitin-protein ligase NEDD4-like R208A, Q96PU5”, the abundance fitness was determined as 0.036 ± 0.062.
To “E3 ubiquitin-protein ligase NEDD4-like R208C, Q96PU5” belongs 0.06 ± 0.062.
For “E3 ubiquitin-protein ligase NEDD4-like R208D, Q96PU5” the value was 0.067 ± 0.098.
To “E3 ubiquitin-protein ligase NEDD4-like R208E, Q96PU5” belongs 0.047 ± 0.083; to “E3 ubiquitin-protein ligase NEDD4-like R208F, Q96PU5”, -0.289 ± 0.06.
The substance “E3 ubiquitin-protein ligase NEDD4-like R208G, Q96PU5” displayed an abundance fitness of -0.191 ± 0.06.
To “E3 ubiquitin-protein ligase NEDD4-like R208I, Q96PU5” belongs -0.504 ± 0.12.
For “E3 ubiquitin-protein ligase NEDD4-like R208K, Q96PU5” the value was -0.028 ± 0.079; for “E3 ubiquitin-protein ligase NEDD4-like R208L, Q96PU5”, -0.128 ± 0.069.
As for “E3 ubiquitin-protein ligase NEDD4-like R208M, Q96PU5”, the abundance fitness was -0.062 ± 0.078.
Substance “E3 ubiquitin-protein ligase NEDD4-like R208N, Q96PU5” gave an abundance fitness of 0.225 ± 0.11.
To “E3 ubiquitin-protein ligase NEDD4-like R208P, Q96PU5” belongs -0.908 ± 0.099; to “E3 ubiquitin-protein ligase NEDD4-like R208Q, Q96PU5”, 0.215 ± 0.09.
Regarding “E3 ubiquitin-protein ligase NEDD4-like R208T, Q96PU5”, the abundance fitness was -0.005 ± 0.08.
The substance “E3 ubiquitin-protein ligase NEDD4-like R208W, Q96PU5” registered an abundance fitness of -0.408 ± 0.083.
For “E3 ubiquitin-protein ligase NEDD4-like R208Y, Q96PU5” the value was -0.23 ± 0.11.
For “E3 ubiquitin-protein ligase NEDD4-like R217A, Q96PU5” the value was 0 ± 0.064.
On to “E3 ubiquitin-protein ligase NEDD4-like R217C, Q96PU5”, for which the abundance fitness is -0.105 ± 0.081.
To “E3 ubiquitin-protein ligase NEDD4-like R217D, Q96PU5” belongs -0.042 ± 0.078; to “E3 ubiquitin-protein ligase NEDD4-like R217E, Q96PU5”, -0.153 ± 0.085.
“E3 ubiquitin-protein ligase NEDD4-like R217F, Q96PU5” showed an abundance fitness of -0.011 ± 0.088.
Regarding “E3 ubiquitin-protein ligase NEDD4-like R217G, Q96PU5”, the abundance fitness is -0.005 ± 0.054.
“E3 ubiquitin-protein ligase NEDD4-like R217H, Q96PU5” gave an abundance fitness of -1 ± 0.062.
For “E3 ubiquitin-protein ligase NEDD4-like R217I, Q96PU5” the value was -0.267 ± 0.084; for “E3 ubiquitin-protein ligase NEDD4-like R217K, Q96PU5”, 0.087 ± 0.091.
For “E3 ubiquitin-protein ligase NEDD4-like R217L, Q96PU5” the value was -0.208 ± 0.06; for “E3 ubiquitin-protein ligase NEDD4-like R217M, Q96PU5”, -0.239 ± 0.07.
The substance “E3 ubiquitin-protein ligase NEDD4-like R217N, Q96PU5” gave an abundance fitness of 0.051 ± 0.089.
The substance “E3 ubiquitin-protein ligase NEDD4-like R217P, Q96PU5” returned an abundance fitness of -0.267 ± 0.085.
For “E3 ubiquitin-protein ligase NEDD4-like R217Q, Q96PU5” the value was -0.016 ± 0.067.
To “E3 ubiquitin-protein ligase NEDD4-like R217T, Q96PU5” belongs -0.069 ± 0.081.
For “E3 ubiquitin-protein ligase NEDD4-like R217Y, Q96PU5”, the abundance fitness is -0.179 ± 0.084.
For “E3 ubiquitin-protein ligase NEDD4-like R223A, Q96PU5” the value was -0.175 ± 0.066; for “E3 ubiquitin-protein ligase NEDD4-like R223C, Q96PU5”, -0.552 ± 0.09; for “E3 ubiquitin-protein ligase NEDD4-like R223D, Q96PU5”, -0.481 ± 0.098.
To “E3 ubiquitin-protein ligase NEDD4-like R223E, Q96PU5” belongs -0.378 ± 0.087; to “E3 ubiquitin-protein ligase NEDD4-like R223F, Q96PU5”, -0.461 ± 0.12.
For “E3 ubiquitin-protein ligase NEDD4-like R223G, Q96PU5” the value was -0.696 ± 0.068.
“E3 ubiquitin-protein ligase NEDD4-like R223H, Q96PU5” yielded an abundance fitness of -0.18 ± 0.13.
To “E3 ubiquitin-protein ligase NEDD4-like R223K, Q96PU5” belongs 0.013 ± 0.1; to “E3 ubiquitin-protein ligase NEDD4-like R223L, Q96PU5”, -0.206 ± 0.053; to “E3 ubiquitin-protein ligase NEDD4-like R223M, Q96PU5”, -0.28 ± 0.067.
With “E3 ubiquitin-protein ligase NEDD4-like R223N, Q96PU5”, the abundance fitness is -0.082 ± 0.088.
To “E3 ubiquitin-protein ligase NEDD4-like R223P, Q96PU5” belongs -0.145 ± 0.11; to “E3 ubiquitin-protein ligase NEDD4-like R223Q, Q96PU5”, -0.153 ± 0.082; to “E3 ubiquitin-protein ligase NEDD4-like R223S, Q96PU5”, -0.154 ± 0.061.
For “E3 ubiquitin-protein ligase NEDD4-like R223T, Q96PU5” the value was -0.393 ± 0.094; for “E3 ubiquitin-protein ligase NEDD4-like R223V, Q96PU5”, -0.249 ± 0.064; for “E3 ubiquitin-protein ligase NEDD4-like R223Y, Q96PU5”, -0.41 ± 0.1.
For “E3 ubiquitin-protein ligase NEDD4-like S184A, Q96PU5” the value was -0.461 ± 0.096; for “E3 ubiquitin-protein ligase NEDD4-like S184C, Q96PU5”, -0.457 ± 0.1; for “E3 ubiquitin-protein ligase NEDD4-like S184E, Q96PU5”, -0.507 ± 0.49.
On to “E3 ubiquitin-protein ligase NEDD4-like S184F, Q96PU5”, for which the abundance fitness came out at 0.13 ± 0.084.
For “E3 ubiquitin-protein ligase NEDD4-like S184G, Q96PU5” the value was -0.476 ± 0.11.
Substance “E3 ubiquitin-protein ligase NEDD4-like S184H, Q96PU5” gave an abundance fitness of -0.437 ± 0.15.
For the substance “E3 ubiquitin-protein ligase NEDD4-like S184L, Q96PU5”, the abundance fitness is -0.599 ± 0.14.
For the substance “E3 ubiquitin-protein ligase NEDD4-like S184M, Q96PU5”, the abundance fitness stood at 0.884 ± 0.2.
For “E3 ubiquitin-protein ligase NEDD4-like S184N, Q96PU5”, the abundance fitness was -0.554 ± 0.4.
For “E3 ubiquitin-protein ligase NEDD4-like S184P, Q96PU5” the value was -0.682 ± 0.26; for “E3 ubiquitin-protein ligase NEDD4-like S184R, Q96PU5”, -1.23 ± 0.22.
To “E3 ubiquitin-protein ligase NEDD4-like S184V, Q96PU5” belongs -0.505 ± 0.13; to “E3 ubiquitin-protein ligase NEDD4-like S184W, Q96PU5”, -1.33 ± 0.15.
To “E3 ubiquitin-protein ligase NEDD4-like S184Y, Q96PU5” belongs -0.099 ± 0.12.
Take “E3 ubiquitin-protein ligase NEDD4-like S225A, Q96PU5”: the abundance fitness was -0.068 ± 0.073.
Consider “E3 ubiquitin-protein ligase NEDD4-like S225C, Q96PU5”, for which the abundance fitness is -0.29 ± 0.099.
To “E3 ubiquitin-protein ligase NEDD4-like S225D, Q96PU5” belongs -0.006 ± 0.065; to “E3 ubiquitin-protein ligase NEDD4-like S225E, Q96PU5”, 0.041 ± 0.081.
For “E3 ubiquitin-protein ligase NEDD4-like S225F, Q96PU5” the value was -0.267 ± 0.081; for “E3 ubiquitin-protein ligase NEDD4-like S225G, Q96PU5”, -0.072 ± 0.068.
